test: soluble on expression in E. coli; label from the status in PepcDB or PDB records

| Sequence | soluble on expression in E. coli |
| --- | --- |
| MRRGLAWVGALLLLGGCVSSRPIDEIQIIQQMGYDFENGRYTGTAVYPTFKQGPMTKPNMLTTTSPTIYDLIPRLSSKSALPIEEGQLRLILFGKEFARRGVTQITHSLARNNKVGSHLLLGVAEESAKELLKITAKTTLSDTLYLPNLVEQNEQSMNLPKTNLHLFLYRYFSPGSDPFLPYFEKKGDFVKLEGVALFRDDQYVGHVSLRDSFLMKILLGETKNGVYQLKVGNRGKQGEDRVMLQNLWAKPKYAWKRDGSRHVLDVFIHIHASVRDYPSWLDQPGGDLFADVKKKMQNELEHNMRRLFRYFQKKRIDPLGIGDFVRSVTRHWDSDAFYREYPDLDIRPHVTVDIVHTGIGE | not soluble |
| MGSDKIHHHHHHMLGVCYYPEHWGTEKVEEDFRRMKELGIEYVRIGEFAWSRIESERGKFNWDWLDKTLELAEKMGLKIVLGTPTATPPKWLIDEHPEILPVDKDGRVKNFGSRRHYCFSSPVYREEVKRIVTIIVKRYGKHPAVAGWQTDNEYGCHDTVRCYCPRCKKAFQKWLERKYEGDIKKLNEAWGTVFWSQEYRSFDEIELPNLTPADPNPSHLLDYYRLASDQVVEFNKLQVEIIREYSPGRFITHNFMSGFTDFDHYKLSKDLDFATWDNYPLGHTLVFLRMKGETKNPFDRVGHPDIISFSHDLYRGVGRGRFWVMEQQAGPVNWAPYNLWPAKGAVRLWTWQAFAHGAEVVSYFRWRQAPFAQEQMHSGLLAPDSAPYPGYHEVKQVFEELKNIDINEPVESEVALVFDYETAWVFSIQPHGEGVNYIDLVFRFYSALRRLGLNVDIVPPGSSLDGYKMIVVPSLAIVKEEVLDTFKKYDGLLVLGPRSGSKTETFQIPPEMPPGLLKEIIPVEVRQVESLGDNVETLVWNGKEYPVSIWREDVDPTITEVIARFKDGFGAIFRKENVFYLAFWPNGDFLVDFFEALSKESGIETKRMPEGVRIQRRGEYVFSFNFTSEEVDLEIPTKVQIVLGDQKIPPYGLLIWKENER | not soluble |
| MSLWKSMTYYQKMIQEPSREKLLPDPLKYPYVQPPYTLVLEMKDVLVHPDWTYQTGWRFKKRPGVDKFLETLAANYEIVVFTADQGMTVFPILDALDPRGYIMYRLVRDATHFVDGHHVKNLDNLNRDLSKVIVVDWDPNSTKLHPENTLNIPRWTGNDDDAGLFDLMAMLVTIATSEVEDVRDVMTYYKSFENPLVKFRENQRLLAEQMAEREHEEKQRNLPAVQRWRPSFLEGHHHHHH | soluble |
| MSTRLTTLSHTSEGHRVSVHYGYDDKGRLTGERQTVENPETGELLWHHETGHAYNEQGLANRVTPDSLPPVEWLTYGSGYLAGMKLGGTPLLEFTRDRLHRETVRSFGSMAGSNAAYKLTSTYTPAGQLQSQHLNSLVYDRDYGWNDNGDLVRISGPRQTREYGYSATGRLESVRTLAPDLDIRIPYATDPAGNRLPDPELHPDSTLTVWPDNRIAEDAHYVYRHDEYGRLTEKTDRIPAGVIRTDDERTHHYHYDSQHRLVFYTRIQHGEPLVESRYLYDPLGRRMAKRVWRRERDLTGWMSLSRKPEVTWYGWDGDRLTTVQTDTTRIQTVYEPGSFTPLIRVETENGEREKAQRRSLAETLQQEGSENGHGVVFPAELVRLLDRLEEEIRADRVSSESRAWLAQCGLTVEQLARQVEPEYTPARKVHFYHCDHRGLPLALISEDGNTAWRGEYDEWGNQLNEENPHHLHQPYRLPGQQHDEESGLYYNRHRHYDPLQGRYITPDPIGLRGGWNMYQYPLNPIQVIDPMGLDAIENMTSGGLIYAVSGVPGLIAANSITNSAYQFGYDMDAIVGGAHNGAADAMRHCYLMCRMTKTFGSTIADVIGKNHEAAGDRQGQPAKERIMDLKNNTVGIACGDFSAKCSDACIEKYNTGQLFGLDGIKADNPIKAKQGSSDASNYLEHHHHHH | not soluble |
| MNNETSGSRDMILKHFDSTQNNQNSVKLEHESSDNNESSGSQNFVFNFLMSQLQNMGPVEIKQEVEAKMLDDIEDEYTDNNYNEGYSKMDTDGDLEWEEEFKKLNKDPSKMDKREQERHRQMAKNREYARKCVQKKKDQRKHAEIRSNQIKKRIQLLKNKTAIKEKNANFAVDLRKMMSEIGVERLKLEYENEKMELNKKFAEMFAQDETVNLNFHRLASAREEFEKAAEDLRLKNGVIGTLGSRKIRAKQQMEWRQHLYQISAHEHEHHRETKLAELADEYVKQTVPKAAPLVTSIPKDMLDQLIKNNKTLDLEELCRFVADNLCLLQNDNDDKESVVK | not soluble |
| MGSDKIHHHHHHRPYTPDYEIVPEYTNADTWKAYEAFNEHLLDQNKFIYKSSTADKAAVDRWNGAAAIWCQPTYWDMAMNAYKRAKAEGDTQKEQKFKQLCDDLFAGNKAHYANFDFDDNNENTGWFIYDDIMWWTVTLARAYELFGVEEYLSLSEESFGRVWYGSEKVGDTGSYADPEKGLGGGMFWQWQPIKNPNPNEADHGKMACINFPTVVAALTLYNNVPTGRTESTDSHPSYQTKEQYLAKGKEIYAWAVENLVDVTTGQVADSRHGNGNPAWKDHVYNQASYIGASVLLYKATGEKQYLDNAVMAADYTMNTISGTFDLLPFETGAEQGIYTAVFAQYIAMLVYDCDQTQYIPFVKRNINYGWANRDKTRDICGGDYTKLQVEGDAVESYSASGIPALMLLFPTDK | not soluble |
| MGAAKNIWALANAEDAANDAEQIPYSSFVVDTSLPLPLMIPRIIELCKDLFKNWGELDDSLFSVERVSGGITNLLLKVSVKEDTNKEVSVTVRLYGPNTEYVINREREILAIKYLSAAGFGAKLLGGFGNGMVQSFINARTLEPSDMREPKIAAQIARELGKFHKVDIPGSKEPQLWVDILKFYEKASTLTFEEPDKQKLFETISFEELHKEIIELREFTGLLNAPVVFAHNDLLSGNFMLNDEEEKLYLIDFEYGSYNYRGFDIGNHFNEYAGYDCDYSLYPSKEEQYHFIKHYLQPDKPDEVSIAEVESVFVETDAYKLASHLYWAIWAIIQARMSPIEFEYLGYFFLRYNEYKKQKPLTFSLVTSHLSASL | soluble |
| MSLEGRRICVDSCPITCITFCAAHTALGPHHGRSGCAVVIRSMDEKLKRVAHAVSDMGLMSKILGESGSSRNTEDYVELNANEFEMTGTELERQVRIARISDKQDVIDIKDAVYDGDVVVADITRHSTQDRTMEHISDELKQVANEVGGDIVQKDDDQLIITPAGVGIARERLGREGHHHHHH | soluble |
| MQKNNNKLTMSARFGEWYKEATENCAERELYATSLIARMDWVVDPISSKSYRYDLTTDLNKNHSSAWYDVATEICNKRKETVIRAILEDNIKIENF | soluble |
| MGSDKIHHHHHHMTTINFLGGCREVGRSAVMVDGIMIDYGVKPSDPPEFPLNGLSPRAVILSHGHLDHIGVAPNLMYYDPEVILTPPSHELSMILLRDSMKIMHPPPFTKRELRQFESNIREVEYEEPITVGDYEVEFFNAGHIPGSASIHMRGDVNILYSGDIRLEETRLLEGANTDYPETDILIVESTYFGTEHPDRKELERAFVESVIDTLDMGGHAIIPAFAVGRTQEVLMILERYGITPYVDGMGKEVAQVIQRHPDFIRSPKELKRAVRNAIPVEWRQRERVLEEPSAVVTTAGMLNGGPAMFYISRLYNDEKSKILLTGYQVEGTNGDMALKTGMLNLGTRVVKLKMGVEQYDFSAHADDRQLKEYVKRVVDRGAEVVFTIHGEETEAFAEWIKDNIGVEAYAPKNGEIYVI | not soluble |
| MRVAIALAKDDATRVYPGPFGHAPRYAIYEAGPSGELVLLEIRENPYAKAHGEEKHAKMRELLRDVDLKVGARFGHKGSLGAFPLADRVEVGPVSLEEALARLKERSSA | soluble |
| MGSDKIHHHHHHMSLAPSVIEPAHEEDAFMDLLATSALDDPLAAARDATADMLRQRQGDHSLPQPFYNDPRVFALEMREIFEHEWLFVGMTCEIPAKGNYLTVQIGDNPIIVVRGDQGTIHAFHNVCRHRGSRLCTQAKGKVAKLVCPYHQWTYELDGRLLFAGQDMGEDFDLGAHGLKPVAVTHAGGFLFVSLADQPPAIDDFLATLDDYLAPYEMDNVKVAAESNIVEQANWKLVIENNRECYHCNGAHPELLNSLIEYDDTDDPRATPAYRDLVARQQAHWEQQQVPWALKRFGKRNRLTRTPMIEGVVSMTMDGRPASQRLMGRLPNPDMGSLRILHLPNSWNHFMGDHAVVFRVLPLGPQQTLVTTKWLVHRDAQEGVDYDPEWMRKVWDATTDQDRQLAEENQRGINSVAYQPGPYSRTYEFGVIDFVDWYSDTMLSRLDAEAPSLHIVQG | not soluble |

— the DeepSol protein solubility set
